The record followed here is the supplement of paper PMC10567573.

B1: FEM1A (parent)
chain: NIVEYLIQEQPGQEQVAGGEAQPG
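Note: lentivirally expressed fusions sorted by FACS into six bins by GFP to DsRed ratio, PSI derived from sequencing read proportions per bin multiplied by bin number.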

The variants in the series derive from B1. Briefly: protein stability index of a GFP-peptide fusion (GPS, HEK-293T) (PSI 1-6); higher = more stable. The conditions noted are these: c terminus: a fixed tail appended.
Take NIVWYLIQEQPGQEQVAGGEAQPG [E4W]: the protein stability index was 2.52.

For NIVLYLIQEQPGQEQVAGGEAQPG [E4L], the protein stability index was found to be 1.92.

For NIVGYLIQEQPGQEQVAGGEAQPG [E4G], the protein stability index was found to be 4.16.

As for NIVSYLIQEQPGQEQVAGGEAQPG [E4S], the protein stability index was found to be 3.64.

On to NIVQYLIQEQPGQEQVAGGEAQPG [E4Q], for which the protein stability index was 3.95.

As for NIVNYLIQEQPGQEQVAGGEAQPG [E4N], the protein stability index was 4.22.

Regarding NIVHYLIQEQPGQEQVAGGEAQPG [E4H], the protein stability index is 3.56.

As for NIVTYLIQEQPGQEQVAGGEAQPG [E4T], the protein stability index came to 4.6.

For NIVPYLIQEQPGQEQVAGGEAQPG [E4P], the protein stability index was found to be 4.76.

For the variant NIVMYLIQEQPGQEQVAGGEAQPG [E4M], the protein stability index worked out at 2.

Regarding NIVCYLIQEQPGQEQVAGGEAQPG [E4C], the protein stability index is 3.11.

For the variant NIVDYLIQEQPGQEQVAGGEAQPG [E4D], the protein stability index was found to be 4.79.

For NIVFYLIQEQPGQEQVAGGEAQPG [E4F], the protein stability index came out at 2.4.

Consider NIVYYLIQEQPGQEQVAGGEAQPG [E4Y], for which the protein stability index is 2.31.

Consider NIVIYLIQEQPGQEQVAGGEAQPG [E4I], for which the protein stability index turned out to be 1.86.

As for NIVKYLIQEQPGQEQVAGGEAQPG [E4K], the protein stability index was 4.11.

NIVVYLIQEQPGQEQVAGGEAQPG [E4V]: the protein stability index stood at 1.82.

As to NIVAYLIQEQPGQEQVAGGEAQPG [E4A], the protein stability index turned out to be 3.48.

As for NIVRYLIQEQPGQEQVAGGEAQPG [E4R], the protein stability index came out at 3.48.

Turning to NIVEYLIQELPGQEQVAGGEAQPG [Q10L], the protein stability index turned out to be 3.43.

Regarding NIVEYLIQEHPGQEQVAGGEAQPG [Q10H], the protein stability index was determined as 3.88.

Regarding NIVEYLIQEVPGQEQVAGGEAQPG [Q10V], the protein stability index was 3.22.

For the variant NIVEYLIQEEPGQEQVAGGEAQPG [Q10E], the protein stability index came to 4.62.

NIVEYLIQEKPGQEQVAGGEAQPG [Q10K]: the protein stability index was determined as 4.3.

As to NIVEYLIQEIPGQEQVAGGEAQPG [Q10I], the protein stability index is 3.75.

Turning to NIVEYLIQECPGQEQVAGGEAQPG [Q10C], the protein stability index was determined as 3.83.

As to NIVEYLIQEDPGQEQVAGGEAQPG [Q10D], the protein stability index worked out at 4.37.

NIVEYLIQEWPGQEQVAGGEAQPG [Q10W]: the protein stability index was 2.

For the variant NIVEYLIQENPGQEQVAGGEAQPG [Q10N], the protein stability index came to 4.27.

Take NIVEYLIQEPPGQEQVAGGEAQPG [Q10P]: the protein stability index turned out to be 4.54.

For the variant NIVEYLIQERPGQEQVAGGEAQPG [Q10R], the protein stability index worked out at 4.03.

As for NIVEYLIQESPGQEQVAGGEAQPG [Q10S], the protein stability index worked out at 4.53.

With NIVEYLIQETPGQEQVAGGEAQPG [Q10T], the protein stability index stood at 3.69.

NIVEYLIQEAPGQEQVAGGEAQPG [Q10A]: the protein stability index was 4.34.

Consider NIVEYLIQEYPGQEQVAGGEAQPG [Q10Y], for which the protein stability index came to 3.09.

As to NIVEYLIQEFPGQEQVAGGEAQPG [Q10F], the protein stability index worked out at 3.16.

In the case of NIVEYLIQEMPGQEQVAGGEAQPG [Q10M], the protein stability index stood at 3.21.

For NIVEYLIFEQPGQEQVAGGEAQPG [Q8F], the protein stability index is 2.94.

For NIVEYLIIEQPGQEQVAGGEAQPG [Q8I], the protein stability index is 3.18.

NIVEYLITEQPGQEQVAGGEAQPG [Q8T]: the protein stability index was found to be 4.88.

Regarding NIVEYLIMEQPGQEQVAGGEAQPG [Q8M], the protein stability index came out at 3.66.

In the case of NIVEYLIVEQPGQEQVAGGEAQPG [Q8V], the protein stability index came to 3.34.

On to NIVEYLIGEQPGQEQVAGGEAQPG [Q8G], for which the protein stability index worked out at 4.26.

In the case of NIVEYLIHEQPGQEQVAGGEAQPG [Q8H], the protein stability index was 3.93.

As for NIVEYLIYEQPGQEQVAGGEAQPG [Q8Y], the protein stability index came to 3.36.

As to NIVEYLIWEQPGQEQVAGGEAQPG [Q8W], the protein stability index came out at 3.33.

Turning to NIVEYLIKEQPGQEQVAGGEAQPG [Q8K], the protein stability index is 4.06.

As for NIVEYLIEEQPGQEQVAGGEAQPG [Q8E], the protein stability index is 4.7.

With NIVEYLICEQPGQEQVAGGEAQPG [Q8C], the protein stability index turned out to be 3.36.

Take NIVEYLILEQPGQEQVAGGEAQPG [Q8L]: the protein stability index is 4.39.

Turning to NIVEYLIPEQPGQEQVAGGEAQPG [Q8P], the protein stability index was 4.71.

Regarding NIVEYLINEQPGQEQVAGGEAQPG [Q8N], the protein stability index was 4.42.

For NIVEYLIREQPGQEQVAGGEAQPG [Q8R], the protein stability index was 3.11.

For NIVEYLIDEQPGQEQVAGGEAQPG [Q8D], the protein stability index came out at 4.89.

As for NIVEYLIAEQPGQEQVAGGEAQPG [Q8A], the protein stability index stood at 4.46.

With NIVEYLISEQPGQEQVAGGEAQPG [Q8S], the protein stability index stood at 4.09.

For NIVESLIQEQPGQEQVAGGEAQPG [Y5S], the protein stability index amounted to 4.83.

For the variant NIVEFLIQEQPGQEQVAGGEAQPG [Y5F], the protein stability index is 3.56.

For NIVEQLIQEQPGQEQVAGGEAQPG [Y5Q], the protein stability index was found to be 5.08.

On to NIVEPLIQEQPGQEQVAGGEAQPG [Y5P], for which the protein stability index was 5.82.

As to NIVEKLIQEQPGQEQVAGGEAQPG [Y5K], the protein stability index worked out at 5.31.

Regarding NIVEDLIQEQPGQEQVAGGEAQPG [Y5D], the protein stability index is 5.67.

NIVEILIQEQPGQEQVAGGEAQPG [Y5I]: the protein stability index is 3.98.

For NIVEELIQEQPGQEQVAGGEAQPG [Y5E], the protein stability index turned out to be 5.66.

As for NIVEWLIQEQPGQEQVAGGEAQPG [Y5W], the protein stability index worked out at 2.18.

As for NIVENLIQEQPGQEQVAGGEAQPG [Y5N], the protein stability index amounted to 4.83.

As to NIVEGLIQEQPGQEQVAGGEAQPG [Y5G], the protein stability index was 5.7.

NIVERLIQEQPGQEQVAGGEAQPG [Y5R]: the protein stability index worked out at 4.54.

With NIVEVLIQEQPGQEQVAGGEAQPG [Y5V], the protein stability index came to 4.49.

In the case of NIVEHLIQEQPGQEQVAGGEAQPG [Y5H], the protein stability index came to 4.93.

Take NIVETLIQEQPGQEQVAGGEAQPG [Y5T]: the protein stability index amounted to 5.44.

Regarding NIVELLIQEQPGQEQVAGGEAQPG [Y5L], the protein stability index worked out at 4.03.

With NIVEALIQEQPGQEQVAGGEAQPG [Y5A], the protein stability index is 5.18.

With NIVECLIQEQPGQEQVAGGEAQPG [Y5C], the protein stability index came out at 4.74.

With NIVEMLIQEQPGQEQVAGGEAQPG [Y5M], the protein stability index is 3.95.

Turning to NIVEYLIQFQPGQEQVAGGEAQPG [E9F], the protein stability index was found to be 2.79.

Turning to NIVEYLIQLQPGQEQVAGGEAQPG [E9L], the protein stability index was 2.27.

In the case of NIVEYLIQSQPGQEQVAGGEAQPG [E9S], the protein stability index came out at 3.36.

Turning to NIVEYLIQKQPGQEQVAGGEAQPG [E9K], the protein stability index was determined as 3.71.

Consider NIVEYLIQTQPGQEQVAGGEAQPG [E9T], for which the protein stability index stood at 3.15.

Take NIVEYLIQIQPGQEQVAGGEAQPG [E9I]: the protein stability index turned out to be 2.3.

Turning to NIVEYLIQWQPGQEQVAGGEAQPG [E9W], the protein stability index was 2.45.

With NIVEYLIQPQPGQEQVAGGEAQPG [E9P], the protein stability index stood at 3.71.

With NIVEYLIQRQPGQEQVAGGEAQPG [E9R], the protein stability index was 2.88.

For NIVEYLIQHQPGQEQVAGGEAQPG [E9H], the protein stability index was 2.95.

In the case of NIVEYLIQVQPGQEQVAGGEAQPG [E9V], the protein stability index came to 2.06.

As for NIVEYLIQDQPGQEQVAGGEAQPG [E9D], the protein stability index turned out to be 4.49.

Take NIVEYLIQAQPGQEQVAGGEAQPG [E9A]: the protein stability index was determined as 2.91.

Turning to NIVEYLIQGQPGQEQVAGGEAQPG [E9G], the protein stability index stood at 3.71.

Regarding NIVEYLIQMQPGQEQVAGGEAQPG [E9M], the protein stability index came out at 3.35.

Turning to NIVEYLIQYQPGQEQVAGGEAQPG [E9Y], the protein stability index stood at 2.42.

For NIVEYLIQNQPGQEQVAGGEAQPG [E9N], the protein stability index was 3.38.

On to NIVEYLIQCQPGQEQVAGGEAQPG [E9C], for which the protein stability index is 3.

On to NIVEYLIQQQPGQEQVAGGEAQPG [E9Q], for which the protein stability index came out at 3.52.
